Common to all, as to assay: cell-based or functional assay
For assay [1], the target named is SARS-CoV-2 Omicron XBB spike protein (SARS-CoV-2).
For assay [2], the target named is SARS-CoV-2 Omicron BA.4/5 spike protein (SARS-CoV-2).
For assay [3], the target named is SARS-CoV-2 Omicron BA.4.6 spike protein (SARS-CoV-2).
For assay [4], the target named is SARS-CoV-2 Omicron BF.7 spike protein (SARS-CoV-2).
In assay [5] the target is SARS-CoV-2 Omicron BA.2.75.2 spike protein (SARS-CoV-2).
The target in assay [6] is SARS-CoV-2 Omicron BQ.1 spike protein (SARS-CoV-2).
For assay [7], the target named is SARS-CoV-2 Omicron BQ.1.1 spike protein (SARS-CoV-2).
Assay [8] has as its target SARS-CoV-2 spike (S) protein, Omicron sublineage BQ.1 (SARS-CoV-2).
For assay [9], the target named is SARS-CoV-2 spike (S) protein, Omicron sublineage BQ.1.1 (SARS-CoV-2).
Assay [10] concerns the target SARS-CoV-2 spike (S) protein, Omicron sublineage XBB (SARS-CoV-2).
Assay [11] has the same target. This is another data set of the same source.

Like-named read-outs stand apart in the source and are kept apart here.

B1: MX1041 (bispecific antibody)
chain: QTVVTQEPSFSVSPGGTVTLTCGLSSGSVSTAYFPSWYQQTPGQAPRTLIYGTNTRSSGVPDRFSGSILGNKAALTITGAQADDESDYYCVLYMGRGIVVFGGGTKLTVLGGSSGEIVLTQSPGTLSLSPGETATLSCRASQSFSSDLAWYQQKPGQAPRLLIYGASSRATGIPDRFSGSGSGTDFTLTISRLEPADFAVYYCQQYGSSPPVTFGGGTKVEIKGGGGSGGSGSGGGGSASGSGEVQLVESGGGLIQPGGSLRLSCAASGVIVSYNYMNWVRQAPGKGLEWVSVIYSGGSTFYADSVRGRFTISRDNSKNTLYLQMNSLRAEDTAVYYCARDLGPAGAFDIWGLGTMVTVSSGGSSGQVQLVESGGGVVQPGRSLRLSCAASGFTLSSYGMHWVRQAPGKGLEWVAVISYDGSNKYYVDSVKGRFTISRDNSKNTLYLQMNSLRAEDTAVYYCRWAYWELLPDYYYGMDVWGQGTTVTVSSASGGSGDKTHTCPPCPAPELLGGPSVFLFPPKPKDTLMISRTPEVTCVVVDVSHEDPEVKFNWYVDGVEVHNAKTKPREEQYNSYVVSVLTVLHQDWLNGKEYKCKVSNKALPAPIEKTISKAKGQPREPQVYTLPPSRDELTKNQVSLTCLVKGFYPSDIAVEWESNGQPENNYKTTPPVLDSDGSFFKKLTVDKSRWQQGNVFSCSVLHEALHSHYTQKSLSLSPG
B1: the IC50, pseudovirus neutralization in [1] came to 0.0691 µg/mL; in [2] it was 0.012 µg/mL; in assay [3], 0.0257 µg/mL; in assay [4] it was 0.00835 µg/mL; in [5], 0.0129 µg/mL; in [6], 0.0429 µg/mL. The IC50, pseudovirus neutralization in [7] was 0.0493 µg/mL. Also, the IC80, pseudovirus neutralization in assay [1] came out at 0.398 µg/mL; in assay [2] it was 0.0262 µg/mL; in assay [3], 0.0671 µg/mL; in [4] it was 0.0304 µg/mL; in assay [5], 0.0362 µg/mL; in assay [6], 0.188 µg/mL. The molecule also yielded an IC80, pseudovirus neutralization in assay [7] of 0.11 µg/mL.

B2: A19-46 + E8 + B8 (protein)
VH 1: QVQLVESGGGVVQPGRSLRLSCAASGFTLSSYGMHWVRQAPGKGLEWVAVISYDGSNKYYVDSVKGRFTISRDNSKNTLYLQMNSLRAEDTAVYYCRWAYWELLPDYYYGMDVWGQGTTVTVSS
VL 1: QTVVTQEPSFSVSPGGTVTLTCGLSSGSVSTAYFPSWYQQTPGQAPRTLIYGTNTRSSGVPDRFSGSILGNKAALTITGAQADDESDYYCVLYMGRGIVVFGGGTKLTVL
VH 2: QVTLRESGPALVKPTQTLTLTCTFSGFSLSTRGVCVSWIRQPPGKALEWLAFIDWDDDKYYNTSLKTRLTISKDTSKNQVVLTMTNVHPVDTATYYCARISSHHGSSWCTTFDYWGQGALVTVSA
VL 2: DTVMTQSPLSLPVTPGEPASISCRSSQSLLNSNGYNYLDWYVQKPGQSPQLLIYLGSNRASGVPDRFSGSGSGTDFTLKISRVEAEDVGVYYCMQPLQTPLFTFGPGTKVEIK
VH 3: EVQLVESGGALIQPGGSLRLSCAASGIIVSANYMSWVRQAPGKGLEWVSVIYSGGSTFYADSVKGRFTISRDNSKNTLYLEMNSLRAEDTAVYYCARDAPILGVSDWGQGTLVTVSS
VL 3: EIVMTQSPAILSVSPGERATLSCRASQSVAINLAWYQQKPGQAPRLLIYAASSRATGIPGRFSGSGSETNFTLTISSLQSGDFAVYYCQQYITWPPSYTFGQGTKLEIK
As for B2, the IC50, pseudovirus neutralization turned out to be 0.016 µg/mL in [8], 0.0111 µg/mL in assay [9], 0.0113 µg/mL in assay [10] and 11.3 nM in assay [11]. For the same molecule, the IC80, pseudovirus neutralization in assay [8] amounted to 0.0522 µg/mL; in assay [9] it was 0.017 µg/mL; in [10], 0.0177 µg/mL; in assay [11], 17.7 nM.

For the origin of these results see patent US20240109955A1.
